Bridges are numbered along the chain shown (N, C = ends).
Assays:
[1] = system: RHAMM-overexpressing (LR21) cells; experiment: Cell migration assay (Boyden chamber, Chemicon ECM510); type: cell-based; conditions: 10 ng/mL peptide; 20 hours; compared to 30% serum control
Experimental: Compounds 132, 133, 150-152, 156-161, 265-269, 275, 277, and 278 were evaluated for their ability to inhibit cell migration. Cell migration assays were performed using Chemicon Assay Kits (ECM510 (Migration); Billerica, Mass., USA) according to the manufacturer's protocol. Briefly, sub-confluent cultures of RHAMM-overexpressing (LR21) cells were serum starved overnight. 7.5×10^4 cells were then plated in the upper chamber of a Boyden chamber. either in the presence or absence of 10 ng/mL of peptide. 30% fetal bovine serum in DMEM was used as the chemo-attractant in the lower chamber. The number of cells that had crossed the membrane after 20 hours was assessed using the CYQUANT GR Dye and lysis buffer solution provided in the kit. Fluorescence was measured with a fluorescent plate reader using a 480/520 nm filter set.
Values are the mean and SDM of n=3 replicates. *p<0.05, **p<0.01. All statistics compare to 30% serum control. In FIGS. 41-43, where bars are labeled with two compound numbers (“133/150” and “135/152”) this means that the data were pooled for the indicated compounds, i.e., for the non-acetylated and acetylated versions of the indicated peptides.

[2] = system: RHAMM-overexpressing (LR21) cells; experiment: Cell invasion assay (Boyden chamber with MATRIGEL, Chemicon ECM555); type: cell-based; conditions: 10 ng/mL peptide; 20 hours; compared to 30% serum control
Experimental: Compounds 132, 133, 135, 150-153, 156, 265-269, and 275-278 were evaluated for their ability to inhibit cellular invasion. Invasion assays were performed using Chemicon Assay Kits ECM555 (Invasion); Billerica, Mass., USA) according to the manufacturer's protocol. Invasion assays are performed in an identical manner as the migration assays described above in Example 5, except that cells are required to invade through a layer of extracellular matrix (MATRIGEL) coating the filter that separates the upper and lower Boyden chambers. Briefly, sub-confluent cultures of RHAMM-overexpressing (LR21) cells were serum starved overnight before plating 7.5×10^4 cells in the upper chamber of a Boyden chamber either in the presence or absence of 10 ng/mL of peptide. 30% fetal bovine serum in DMEM was used as the chemo-attractant in the lower chamber. The number of cells that had crossed the membrane after 20 hours was assessed using the CYQUANT® GR Dye and lysis buffer solution provided in the kit. Fluorescence was measured with a fluorescent plate reader using 480/520 nm filter set.
Values the mean and SDM of n=3 replicates. *p<0.05, **p<0.01, ***p<0.001 All statistics compared to 30% serum control. In FIG. 49, where bars are labeled with two compound numbers (“152/135”) this means that the data were pooled for the indicated compound, i.e., for the non-acetylated and acetylated versions of the indicated peptide.

[3] = Circular dichroism (CD) spectroscopy of HABD2 peptides in Milli-Q water (Example 1); type: physicochemical; conditions: for [θ]222/[θ]208 ratio of ellipticities / fH fraction helicity / Molar ellipticity [θ]192 / Molar ellipticity [θ]208 / Molar ellipticity [θ]222: 0.5 mM in Milli-Q water; for fH fraction helicity: equations 1-3; for α-helical character by CD (in words): Milli-Q water; for Molar ellipticity [θ]192: λ = 192 nm; for Molar ellipticity [θ]208: λ = 208 nm; for Molar ellipticity [θ]222: λ = 222 nm
Source text: In addition, a large mean residue ellipticity indicates greater α-helical character. […] This was predicted to be the case, as there is a lack of contributing residues that might form a hydrophobic core, thereby helping to stabilize the secondary structure of the linear peptide. For this reason, bridges were introduced into the peptides. […] The differences in α-helicity induced by the bridges placed at different points within each peptide may be due to the differences in their primary sequences. Specifically, two amino acids (at the i and i+4 position) have to be replaced in order to form the lactam bridge. In compound 133, leucine was replaced at both the i and i+4 position; while in compound 136, glutamine was replaced at the i position and aspartic acid was replaced at i+4. Leucine and glutamine are proposed to be helix-stabilizing residues.
A larger portion of the RHAMM protein was used as the reference for α-helical character of the truncated peptides. 7 kDa RHAMM (SEQ ID NO: 1) is a mini protein that is composed of 62 amino acids, which was derived from the C-terminus of the full-length RHAMM sequence. It contains both HABDs, and is predicted to have almost complete α-helix shape, similar to that of native full-length RHAMM.
A peptide's α-helicity can be quantified using equations 1-3: fH=[([θ]obs222−[θ]c)/([θ]max222−[θ]c)] (Equation 1) [θ]c=2220+53T (Equation 2) [θ]max222=(−44000+250T)(1−k/N) (Equation 3) where fH is the ratio of the average number of helical hydrogen bonds divided by the total number of hydrogen bonds that can be found in a peptide, T is the temperature in degrees Celsius, N is the number of residues in the peptide and k is a constant of ellipticity when 100% of the structure is α-helical (3 for carboxyamidated peptides).
Milli-Q water was chosen as the solvent in which all peptides would be dissolved for CD spectroscopy, as it is a UV invisible solvent, which is a requirement of the analytical technique, and it represents RHAMM's natural environment in the body. Luo and Baldwin [18] stated that when peptides are taken out of their native protein sequence, they usually show little to no helical formation in water alone. For this reason, TFE/H2O solutions are commonly used in studies to observe the α-helix characteristics, and may improve the helical nature of the peptides observed here. However, a helix-stabilizing solvent, such as TFE, would not be as contextually relevant, as there are no solvent stabilizing effects in the body. Thus use of TFE would tend to produce skewed results and not be representative of the peptide's natural behavior.

[4] = system: NF-κB; experiment: Inflammation assay: NF-κB inducible SEAP reporter in RAW-Blue macrophages stimulated with PAM3CSK4; type: cell-based, murine; conditions: 10 ng/mL peptide with 200 ng/mL PAM3CSK4; 18 hours; compared to +PAM3
Experimental: Compounds 132, 133, 135, 150, 152, 157-161, 265-269, 275, 277, and 278 were evaluated for their ability to inhibit inflammation. To determine the effect of the peptides on inflammation, commercially available murine RAW 264.7 macrophages carrying a secreted embryonic alkaline phosphatase (SEAP) reporter that is inducible by NF-κB (RAW-Blue; InvivoGen, San Diego, Calif., USA) were used. Cells were grown to 80% confluence in DMEM containing 4.5 g/L glucose, 10% heat-inactivated fetal bovine serum, 2 mM L-glutamine, 50 μg/mL penicillin/streptomycin, 100 μg/mL Normocin (InvivoGen) at 37° C. in 5% CO2. For peptide screening experiments, cells were scraped in growth medium, counted, and plated to flat-bottom 96-well plates at a density of 5×10^4 cells/well either in the presence or absence (control) of 200 ng/mL TLR1/TLR2 agonist PAM3CSK4 (InvivoGen). Peptides were added in 6 replicate wells at a dose of 10 ng/mL in the presence of PAM3CSK4. After 18 hours of stimulation, SEAP concentrations (indicating NF-κB activity) were measured in the supernatants collected from the RAW-Blue cells using QUANTI-BLUE reagent (InvivoGen). After 20 minutes of incubation at 37° C., SEAP levels were determined using spectrophotometry at a wavelength of 630 nm.
Values are the mean and SDM of n=3 replicates. *p<0.05 and ***p<0.001 compared to +PAM3. In FIGS. 44 and 45, where bars are labeled with two compound numbers (“133/150” and “135/152”) this means that the data were pooled for the indicated compounds, i.e., for the non-acetylated and acetylated versions of the indicated peptides.

Substance	inhibition of cell migration (in words) [1]	inhibition of cellular invasion (in words) [2]	[θ]222/[θ]208 ratio of ellipticities [3]	fH fraction helicity [3]	α-helical character by CD (in words) [3]	Molar ellipticity [θ]192 [3]	Molar ellipticity [θ]208 [3]	Molar ellipticity [θ]222 [3]	inhibition of inflammation (SEAP / NF-κB activity, in words) [4]
H-(cyclo-4,8)-VSK[ERSQK]VKRKQN-NH2 (H-VSKERSQKVKRKQN-NH2; lactam 4-8; SMILES CC(C)[C@H](N)C(=O)N[C@@H](CO)C(=O)N[C@@H](CCCCN)C(=O)N[C@H]1CCC(=O)NCCCC[C@@H](C(=O)N[C@H](C(=O)N[C@@H](CCCCN)C(=O)N[C@@H](CCCNC(=N)N)C(=O)N[C@@H](CCCCN)C(=O)N[C@@H](CCC(N)=O)C(=O)N[C@@H](CC(N)=O)C(N)=O)C(C)C)NC(=O)[C@H](CCC(N)=O)NC(=O)[C@H](CO)NC(=O)[C@H](CCCNC(=N)N)NC1=O) [Compound 133]	significantly inhibit cell migration	significantly inhibited cellular invasion	0.45	0.17	did not seem to stabilize	1733.35 deg cm^2 dmol^−1 residue^−1	−5010.81 deg cm^2 dmol^−1 residue^−1	−2260.92 deg cm^2 dmol^−1 residue^−1	
H-(cyclo-6,10)-VSKLR[EQLVK]RKQN-NH2 (H-VSKLREQLVKRKQN-NH2; lactam 6-10; SMILES CC(C)C[C@H](NC(=O)[C@H](CCCCN)NC(=O)[C@H](CO)NC(=O)[C@@H](N)C(C)C)C(=O)N[C@@H](CCCNC(=N)N)C(=O)N[C@H]1CCC(=O)NCCCC[C@@H](C(=O)N[C@@H](CCCNC(=N)N)C(=O)N[C@@H](CCCCN)C(=O)N[C@@H](CCC(N)=O)C(=O)N[C@@H](CC(N)=O)C(N)=O)NC(=O)[C@H](C(C)C)NC(=O)[C@H](CC(C)C)NC(=O)[C@H](CCC(N)=O)NC1=O) [Compound 135]	significantly inhibit cell migration	significantly inhibited cellular invasion	0.55	0.22	increase in α-helix structure	1245.85 deg cm^2 dmol^−1 residue^−1	−7906.16 deg cm^2 dmol^−1 residue^−1	−4400.73 deg cm^2 dmol^−1 residue^−1	significantly inhibited inflammation
